# Test results from PMC10117238, “Molecular mechanism underlying the increased risk of colorectal cancer metastasis caused by single nucleotide polymorphisms in LI-cadherin gene” (Scientific Reports, 2023).
# T1: LI-cadherin EC1-2K115E (human)
# T1 chain: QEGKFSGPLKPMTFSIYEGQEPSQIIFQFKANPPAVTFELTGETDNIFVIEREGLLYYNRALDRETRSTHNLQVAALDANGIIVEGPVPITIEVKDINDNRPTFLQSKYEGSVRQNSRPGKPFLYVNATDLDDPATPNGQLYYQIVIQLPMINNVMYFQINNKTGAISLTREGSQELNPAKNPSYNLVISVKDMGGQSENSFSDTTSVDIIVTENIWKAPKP
# Key:
# [1] = target: LI-cadherin EC1-4 (Homo sapiens) (UniProt Q12864); experiment: SV-AUC; conditions: cited from earlier work
# [2] = target: LI-cadherin EC1-2 (Homo sapiens) (UniProt Q12864); experiment: SV-AUC; conditions: cited from earlier work
# [3] = target: the molecule itself; experiment: AUC; sedimentation velocity (SV-AUC), 20 °C, 42,000 rpm, UV detection; 1-120 µM EC1-4K115E or 1-60 µM EC1-2K115E; buffer A (10 mM HEPES-NaOH pH 7.5, 150 mM NaCl, 3 mM CaCl2); homodimer to monomers
# [4] = target: T1, LI-cadherin EC1-2K115E; experiment: as above; conditions: both partners purified
# Chain of LI-cadherin EC1-2 (Q12864 23-244): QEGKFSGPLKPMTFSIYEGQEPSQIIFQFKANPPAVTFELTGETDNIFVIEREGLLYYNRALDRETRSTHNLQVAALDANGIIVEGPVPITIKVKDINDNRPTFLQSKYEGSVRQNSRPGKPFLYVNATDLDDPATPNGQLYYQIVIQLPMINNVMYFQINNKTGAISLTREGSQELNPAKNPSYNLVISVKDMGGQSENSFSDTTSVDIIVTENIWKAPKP
# Chain of LI-cadherin EC1-4 (Q12864 23-449): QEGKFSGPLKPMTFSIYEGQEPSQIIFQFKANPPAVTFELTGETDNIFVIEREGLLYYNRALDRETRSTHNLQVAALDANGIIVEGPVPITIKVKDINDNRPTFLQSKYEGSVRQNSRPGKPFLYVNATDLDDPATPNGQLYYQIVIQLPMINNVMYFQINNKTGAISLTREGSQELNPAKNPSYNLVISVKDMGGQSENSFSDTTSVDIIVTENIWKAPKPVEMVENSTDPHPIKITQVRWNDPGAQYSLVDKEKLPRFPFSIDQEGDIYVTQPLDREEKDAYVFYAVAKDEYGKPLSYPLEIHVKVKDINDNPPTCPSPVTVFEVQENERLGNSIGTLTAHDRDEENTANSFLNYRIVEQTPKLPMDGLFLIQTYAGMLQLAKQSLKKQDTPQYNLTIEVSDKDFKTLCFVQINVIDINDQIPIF
molecule,measurement,setting,value
LI-cadherin EC1-4 (from UniProt Q12864),Kd,[1],39.8 µM
LI-cadherin EC1-2 (from UniProt Q12864),Kd,[2],75 µM
"LI-cadherin EC1-4K115E (domain or fragment, human, Liver Intestine-cadherin (LI-cadherin, CDH17), human; the first four N-terminal extracellular cadherin repeats EC1-4, with the SNP change Lys115 to Glu (c.343A>G); Made in mammalian cells, N-glycosylated; K115E is a SNP variant found in patients, made here by site-directed mutagenesis; also called K115E of EC1-4; source: Expi293F, transfected (pcDNA3.4), purified from the supernatant (Ni-NTA, SEC)) QEGKFSGPLKPMTFSIYEGQEPSQIIFQFKANPPAVTFELTGETDNIFVIEREGLLYYNRALDRETRSTHNLQVAALDANGIIVEGPVPITIEVKDINDNRPTFLQSKYEGSVRQNSRPGKPFLYVNATDLDDPATPNGQLYYQIVIQLPMINNVMYFQINNKTGAISLTREGSQELNPAKNPSYNLVISVKDMGGQSENSFSDTTSVDIIVTENIWKAPKPVEMVENSTDPHPIKITQVRWNDPGAQYSLVDKEKLPRFPFSIDQEGDIYVTQPLDREEKDAYVFYAVAKDEYGKPLSYPLEIHVKVKDINDNPPTCPSPVTVFEVQENERLGNSIGTLTAHDRDEENTANSFLNYRIVEQTPKLPMDGLFLIQTYAGMLQLAKQSLKKQDTPQYNLTIEVSDKDFKTLCFVQINVID",Kd,[3],51.6 µM
same,stoichiometry N,[3],2
"LI-cadherin EC1-2K115E (domain or fragment, N-glycosylated (Expi293F expression, N-glycans on EC2); Ca2+-bound (3 mM CaCl2). Limits by convention: mature N-terminus Gln23 (as in 7CYM) to end of UniProt Cadherin 2 domain (244). C-terminal …) QEGKFSGPLKPMTFSIYEGQEPSQIIFQFKANPPAVTFELTGETDNIFVIEREGLLYYNRALDRETRSTHNLQVAALDANGIIVEGPVPITIEVKDINDNRPTFLQSKYEGSVRQNSRPGKPFLYVNATDLDDPATPNGQLYYQIVIQLPMINNVMYFQINNKTGAISLTREGSQELNPAKNPSYNLVISVKDMGGQSENSFSDTTSVDIIVTENIWKAPKP",Kd,[4],343 µM
same,stoichiometry N,[4],2
